In this data set the test system is [H][C@@]12COP(=O)(O)O[C@@]1([H])[C@@H](O)[C@H](n1cnc3c(=O)[nH]c(N)nc31)O2. Description: [3H]-cGMP hydrolysis, snake venom nucleotidase, anion-exchange separation. It counts as biochemical, Homo sapiens. The note with it: [3H]-cGMP mixed with unlabelled cGMP […], […] MgCl2, pH […].

These results are taken from article PMC5434896, “Inhibition of PDE5A1 guanosine cyclic monophosphate (cGMP) hydrolysing activity by sildenafil analogues that inhibit cellular cGMP efflux” (The Journal of Pharmacy and Pharmacology, 2017).

One may read the Km as the concentration of substrate that gives half-maximal velocity.

Regarding PDE5A1 (Homo sapiens), the Michaelis-Menten constant (Km) stood at 1.7 ± 0.4 µM.
